Measurements published in the supplement of paper PMC6757056.
± gives the standard deviation of the averaged measurements.

B1: library; a variant is named by its letters at N, in order (parent)
chain: GCUGUCACCGAGAAACUGUGAAGUAUAUCUUAAACCUGGGCACUUAAAAGAUAUAUGGAGUUAGUAGUGCAACCUGCUCGGUCUGAUGAGUCCNNNNNNGGACGAAACAGC

Columns and labels:
[1] = variants of: B1; assay: normalized RNA/DNA level without ligand (relative to sTRSVctl = 100) (log10 (% of sTRSVctl)); HEK293T; ligand: cyclic di-GMP (c-di-GMP-II aptamer); higher = less ribozyme self-cleavage, higher mRNA level; details: reporter: mCherry (pCS4076), ligand present: no
Outline: (§1)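 Ribozyme switch library plasmids linked to reporters were introduced into HEK293T cells at 4 µg per 6-well well, with ligand, if any, added 1 h before. Total RNA was extracted with EDTA 72 h later, reverse-transcribed, amplified, barcoded and sequenced. RNA level was computed from RNA over DNA reads relative to a spiked-in non-cleaving sequence or the top sequences, then scaled and log-transformed. The top set was 25 sequences, values were ×100 and log10, and the cutoff was ≥100 DNA reads.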

[2] = variants of: B1; assay: normalized RNA/DNA level with ligand (relative to sTRSVctl = 100) (log10 (% of sTRSVctl)); HEK293T; ligand: cyclic di-GMP (c-di-GMP-II aptamer); ligand concentration (+) RNA-Seq: 1 mM; higher = less ribozyme self-cleavage, higher mRNA level; details: reporter: mCherry (pCS4076), ligand present: yes
Outline: as §1

Row | Variant | normalized RNA/DNA level without ligand (log10) [1] | normalized RNA/DNA level with ligand (log10) [2]
1 | GCUGUCACCGAGAAACUGUGAAGUAUAUCUUAAACCUGGGCACUUAAAAGAUAUAUGGAGUUAGUAGUGCAACCUGCUCGGUCUGAUGAGUCCCUCAAGGGACGAAACAGC [CUCAAG] | 1.67 ± 0.022 | 1.84 ± 0.033
2 | GCUGUCACCGAGAAACUGUGAAGUAUAUCUUAAACCUGGGCACUUAAAAGAUAUAUGGAGUUAGUAGUGCAACCUGCUCGGUCUGAUGAGUCCCUCAAUGGACGAAACAGC [CUCAAU] | 1.55 ± 0.057 | 1.71 ± 0.082
3 | GCUGUCACCGAGAAACUGUGAAGUAUAUCUUAAACCUGGGCACUUAAAAGAUAUAUGGAGUUAGUAGUGCAACCUGCUCGGUCUGAUGAGUCCCUCAACGGACGAAACAGC [CUCAAC] | 1.66 ± 0.033 | 1.8 ± 0.1
4 | GCUGUCACCGAGAAACUGUGAAGUAUAUCUUAAACCUGGGCACUUAAAAGAUAUAUGGAGUUAGUAGUGCAACCUGCUCGGUCUGAUGAGUCCCUCAAAGGACGAAACAGC [CUCAAA] | 1.38 ± 0.12 | 1.59 ± 0.076
5 | GCUGUCACCGAGAAACUGUGAAGUAUAUCUUAAACCUGGGCACUUAAAAGAUAUAUGGAGUUAGUAGUGCAACCUGCUCGGUCUGAUGAGUCCCUCACGGGACGAAACAGC [CUCACG] | 1.78 ± 0.037 | 1.86 ± 0.16
6 | GCUGUCACCGAGAAACUGUGAAGUAUAUCUUAAACCUGGGCACUUAAAAGAUAUAUGGAGUUAGUAGUGCAACCUGCUCGGUCUGAUGAGUCCCUCACAGGACGAAACAGC [CUCACA] | 1.66 ± 0.033 | 1.83 ± 0.13
7 | GCUGUCACCGAGAAACUGUGAAGUAUAUCUUAAACCUGGGCACUUAAAAGAUAUAUGGAGUUAGUAGUGCAACCUGCUCGGUCUGAUGAGUCCCUCACUGGACGAAACAGC [CUCACU] | 1.57 ± 0.052 | 1.77 ± 0.092
8 | GCUGUCACCGAGAAACUGUGAAGUAUAUCUUAAACCUGGGCACUUAAAAGAUAUAUGGAGUUAGUAGUGCAACCUGCUCGGUCUGAUGAGUCCCUCACCGGACGAAACAGC [CUCACC] | 1.7 ± 0.079 | 1.825 ± 0.013
9 | GCUGUCACCGAGAAACUGUGAAGUAUAUCUUAAACCUGGGCACUUAAAAGAUAUAUGGAGUUAGUAGUGCAACCUGCUCGGUCUGAUGAGUCCAUCACUGGACGAAACAGC [AUCACU] | 1.74 ± 0.057 | 1.88 ± 0.12
10 | GCUGUCACCGAGAAACUGUGAAGUAUAUCUUAAACCUGGGCACUUAAAAGAUAUAUGGAGUUAGUAGUGCAACCUGCUCGGUCUGAUGAGUCCAUCACGGGACGAAACAGC [AUCACG] | 1.64 ± 0.012 | 1.78 ± 0.13
11 | GCUGUCACCGAGAAACUGUGAAGUAUAUCUUAAACCUGGGCACUUAAAAGAUAUAUGGAGUUAGUAGUGCAACCUGCUCGGUCUGAUGAGUCCAUCACAGGACGAAACAGC [AUCACA] | 1.64 ± 0.069 | 1.8 ± 0.062
12 | GCUGUCACCGAGAAACUGUGAAGUAUAUCUUAAACCUGGGCACUUAAAAGAUAUAUGGAGUUAGUAGUGCAACCUGCUCGGUCUGAUGAGUCCAUCACCGGACGAAACAGC [AUCACC] | 1.77 ± 0.035 | 1.87 ± 0.068
13 | GCUGUCACCGAGAAACUGUGAAGUAUAUCUUAAACCUGGGCACUUAAAAGAUAUAUGGAGUUAGUAGUGCAACCUGCUCGGUCUGAUGAGUCCUUCACGGGACGAAACAGC [UUCACG] | 1.803 ± 0.018 | 1.9 ± 0.09
14 | GCUGUCACCGAGAAACUGUGAAGUAUAUCUUAAACCUGGGCACUUAAAAGAUAUAUGGAGUUAGUAGUGCAACCUGCUCGGUCUGAUGAGUCCUUCACCGGACGAAACAGC [UUCACC] | 1.778 ± 0.0039 | 1.89 ± 0.078
15 | GCUGUCACCGAGAAACUGUGAAGUAUAUCUUAAACCUGGGCACUUAAAAGAUAUAUGGAGUUAGUAGUGCAACCUGCUCGGUCUGAUGAGUCCUUCACAGGACGAAACAGC [UUCACA] | 1.81 ± 0.029 | 1.89 ± 0.16
16 | GCUGUCACCGAGAAACUGUGAAGUAUAUCUUAAACCUGGGCACUUAAAAGAUAUAUGGAGUUAGUAGUGCAACCUGCUCGGUCUGAUGAGUCCGUCAAGGGACGAAACAGC [GUCAAG] | 1.57 ± 0.031 | 1.75 ± 0.077
17 | GCUGUCACCGAGAAACUGUGAAGUAUAUCUUAAACCUGGGCACUUAAAAGAUAUAUGGAGUUAGUAGUGCAACCUGCUCGGUCUGAUGAGUCCGUCAACGGACGAAACAGC [GUCAAC] | 1.65 ± 0.055 | 1.79 ± 0.14
18 | GCUGUCACCGAGAAACUGUGAAGUAUAUCUUAAACCUGGGCACUUAAAAGAUAUAUGGAGUUAGUAGUGCAACCUGCUCGGUCUGAUGAGUCCGUCAGAGGACGAAACAGC [GUCAGA] | 1.56 ± 0.057 | 1.76 ± 0.076
19 | GCUGUCACCGAGAAACUGUGAAGUAUAUCUUAAACCUGGGCACUUAAAAGAUAUAUGGAGUUAGUAGUGCAACCUGCUCGGUCUGAUGAGUCCGUCACAGGACGAAACAGC [GUCACA] | 1.663 ± 0.0013 | 1.77 ± 0.17
20 | GCUGUCACCGAGAAACUGUGAAGUAUAUCUUAAACCUGGGCACUUAAAAGAUAUAUGGAGUUAGUAGUGCAACCUGCUCGGUCUGAUGAGUCCGUCACCGGACGAAACAGC [GUCACC] | 1.708 ± 0.011 | 1.85 ± 0.055
21 | GCUGUCACCGAGAAACUGUGAAGUAUAUCUUAAACCUGGGCACUUAAAAGAUAUAUGGAGUUAGUAGUGCAACCUGCUCGGUCUGAUGAGUCCAUCAAUGGACGAAACAGC [AUCAAU] | 1.64 ± 0.026 | 1.77 ± 0.15
22 | GCUGUCACCGAGAAACUGUGAAGUAUAUCUUAAACCUGGGCACUUAAAAGAUAUAUGGAGUUAGUAGUGCAACCUGCUCGGUCUGAUGAGUCCAUCAACGGACGAAACAGC [AUCAAC] | 1.61 ± 0.063 | 1.8 ± 0.09
23 | GCUGUCACCGAGAAACUGUGAAGUAUAUCUUAAACCUGGGCACUUAAAAGAUAUAUGGAGUUAGUAGUGCAACCUGCUCGGUCUGAUGAGUCCAUCAAAGGACGAAACAGC [AUCAAA] | 1.57 ± 0.059 | 1.77 ± 0.074
24 | GCUGUCACCGAGAAACUGUGAAGUAUAUCUUAAACCUGGGCACUUAAAAGAUAUAUGGAGUUAGUAGUGCAACCUGCUCGGUCUGAUGAGUCCAUCAAGGGACGAAACAGC [AUCAAG] | 1.57 ± 0.1 | 1.76 ± 0.062
25 | GCUGUCACCGAGAAACUGUGAAGUAUAUCUUAAACCUGGGCACUUAAAAGAUAUAUGGAGUUAGUAGUGCAACCUGCUCGGUCUGAUGAGUCCUUCAAAGGACGAAACAGC [UUCAAA] | 1.611 ± 0.0055 | 1.79 ± 0.057
26 | GCUGUCACCGAGAAACUGUGAAGUAUAUCUUAAACCUGGGCACUUAAAAGAUAUAUGGAGUUAGUAGUGCAACCUGCUCGGUCUGAUGAGUCCUUCAAGGGACGAAACAGC [UUCAAG] | 1.689 ± 0.0038 | 1.82 ± 0.086
